Experimental data from publication PMC11790652.

How the values were obtained:
[1] = target: P66 T176M (site-directed mutant, B. burgdorferi B31 A3) (Borrelia burgdorferi (strain B31 A3)); assay: native gel or EMSA; BN-PAGE of outer membrane proteins (B-fractions) of the B. burgdorferi strains, immunoblot probed with rabbit polyclonal antibody D8713 against P66
[2] = target: P66 T176M (site-directed mutant, B. burgdorferi B31 A3) (Borrelia burgdorferi (strain B31 A3))
[3] = target: P66 G584R (site-directed mutant, B. burgdorferi B31 A3) (Borrelia burgdorferi (strain B31 A3)); assay: native gel or EMSA; BN-PAGE of outer membrane proteins (B-fractions) of the B. burgdorferi strains, immunoblot probed with rabbit polyclonal antibody D8713 against P66
[4] = target: P66 G584R (site-directed mutant, B. burgdorferi B31 A3) (Borrelia burgdorferi (strain B31 A3))
[5] = target: P66 G175V (site-directed mutant, B. burgdorferi B31 A3) (Borrelia burgdorferi (strain B31 A3)); assay: native gel or EMSA; BN-PAGE of outer membrane proteins (B-fractions) of the B. burgdorferi strains, immunoblot probed with rabbit polyclonal antibody D8713 against P66
[6] = target: P66 G175V (site-directed mutant, B. burgdorferi B31 A3) (Borrelia burgdorferi (strain B31 A3))

Question: How did the stoichiometry N [1] turn out when “P66 T176M (site-directed mutant, B. burgdorferi B31 A3) (natural protein)” was run?
Answer: 3

Question: What about the black lipid bilayer (BLB) channel conductance of B-fractions in 1 M KCl, 20 mV [2] of the same substance?
Answer: < 5 nS

Question: Which stoichiometry N [3] does the source give for “P66 G584R (site-directed mutant, B. burgdorferi B31 A3) (natural protein)” here?
Answer: 3

Question: And the black lipid bilayer (BLB) channel conductance of B-fractions in 1 M KCl, 20 mV [4]?
Answer: < 5 nS

Question: Which stoichiometry N [5] does the source give for “P66 G175V (site-directed mutant, B. burgdorferi B31 A3) (natural protein)” here?
Answer: 3

Question: What about the black lipid bilayer (BLB) channel conductance of B-fractions in 1 M KCl, 20 mV [6] of the same substance?
Answer: < 5 nS
